# In article PMC4888889, “Role of VicRKX and GlnR in pH-Dependent Regulation of the Streptococcus salivarius 57.I Urease Operon”:
# B1: VicR box probe (dsDNA)
# DNA 1: CTAATATGTAAATGTTGCAAAATTTCTGAA
# DNA 2: TTCAGAAATTTTGCAACATTTACATATTAG
# Target: MalE (MBP) (UniProt P0AEX9 27-396)
# Assay: EMSA; EMSA: 50 mM Tris-HCl pH 7.4, 50 mM KCl, 2 mM MgCl2, 100 ng poly(dI-dC), 0.5 ug BSA, 0.01 pmol probe, 4 C 30 min; DAPA: 10 mM Tris-HCl pH 7.6, 60 mM KCl, 5% glyc
binder,measurement,value
B1,binding result,no binding
